# Test results published in paper PMC5562721.
# Target: Recombinant Ebola virus (EBOV) glycoprotein (Ebola virus (Zaire ebolavirus)) (UniProt Q05320)
# Assay: SEC + cross-linking
substance,measurement,value
Recombinant Ebola virus (EBOV) glycoprotein (from UniProt Q05320) (natural protein),stoichiometry N,3
